Source: the supplement of paper PMC9170038

Tested on: MS2 coat protein
Test: apparent KD of MS2 coat protein; designed switch direction (-1 OFF switch, 1 ON switch): -1; higher = weaker reporter binding
Outline: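 Designed RNA switches were transcribed on Illumina chips by stalled E. coli RNA polymerase and titrated with SNAP-549-labelled MS2 coat protein from 0.7 or 1.5 nM, doubling to 3 µM. Step length ran from 0.8–1.5 h at the lowest concentration to 10–20 min at the highest. The apparent KD is the median over clusters for each design, from curve-fitted normalised cluster fluorescence.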

[1] = Eterna round: R95, input ligand: microRNA oligo, concentration not stated
[2] = Eterna round: R95, input ligand: FMN 200 uM
[3] = Eterna round: R95, input ligand: none

| Sequence | apparent KD of MS2 coat protein (input ligand: FMN 200 uM) | apparent KD of MS2 coat protein (input ligand: none) | apparent KD of MS2 coat protein [1] | other results |
| --- | --- | --- | --- | --- |
| UUAGCUCAAGUCAGGAUAUUAGAGGCUUGCCUAAAUAAGAAGGGACAUGAGGAUCACCCAUGUCUAUGCAUGUA [BmEX4 A.16] (Eterna round: R97, puzzle: Brourd's mod of Exclusion 4) | 21.5 nM | 15.9 nM | – | – |
| CAGCCCUGAGGAUAUCCCUACUUGCACAUGAGGAUCACCCAUGUCCUCCUCCGGGCUUCGGGAGAAGGCAGGUCUC [Megrez-7.5] (Eterna round: R97, puzzle: Exclusion 5) | 23.8 nM | 17 nM | – | – |
| UACAUGAGGAUCACCCAUGUUUUGUCGUGUAUGGUACCCGUUUAGGAUAUCGUGUUAUUGGACCGCGAGAAGGAGAGUAUCAUU [Excl-NG3-LRO05] (Eterna round: R96, puzzle: Exclusion NG 3) | 24 nM | 31.6 nM | – | apparent KD of MS2 coat protein (input ligand: microRNA oligo, concentration not stated): 30 nM |
| GAUCCACAUGAGGAUCACCCAUGUGAGGAUAUGAUACUAUGUACUUCGGUACAUAGUAUCAGAAGGCAUAUGAA [Ex1-3: 47] (puzzle: Exclusion 1) | – | – | 45.6 nM | – |
| CAGUACUGAGGAUAUACAUGAGGAUCACCCAUGUGCUUUAGCUAGGAUACUAGCACCAGUAGAAGGCAGUACUG [Fiskers Ex 3 828 mod 12] (puzzle: Exclusion 3) | – | – | 10.7 nM | – |
| UGAUUGUUUACCAGGUUAUACAUGAGGAUCACCCAUGUAGAUCCUACGUGCGCGUUGUUCCGCUCGUCUUAUUGCCA [Sensor-V1 #80] (Eterna round: R97, puzzle: Sensor, turn-off variant 1) | 22.6 nM | 24.8 nM | – | – |
| GAUGAGGUAGGAUAUACGAUAAUAUAGGGUAGAUAUAUAACACAUGAGGAUCACCCAUGUAGAAGGACCAGUAG [Mat - Exclusion 2 - Mod of my Tesla design - D66] (puzzle: Exclusion 2) | – | – | 33.4 nM | – |
| AGCUAGUCAGGAUAUUCUAAUAAUUACAUGAGGAUCACCCAUGUGCAUAGACAAGGGUGUGAAGAAGGGACUAGCG [Omei Ex5 A7] (Eterna round: R97, puzzle: Exclusion 5) | 797 nM | 2530 nM | – | – |
| GUACGCUCAGGAUAUCAAGGGCUGUACAUGAGGAUCACCCAUGUUAUCUUGGUGUCAGCGUGAGAAGGGAGGGAAA [Xesoonesa] (puzzle: Exclusion 5) | – | – | 20.6 nM | – |
| CGCGACUCAGGAUAUACAUGAGGAUCACCCAUGUGGAACUACUGGGUCGAUAAAAGGUGUAGAAGGGAGGAAAU [Veveesla] (puzzle: Exclusion 3) | – | – | 10.5 nM | apparent KD of MS2 coat protein [2]: 14.3 nM; apparent KD of MS2 coat protein [3]: 13.5 nM |
| GAGAAUUCAUAGGAUAUCGUAUGGAUAAUUUAACGAGAAGGAUGAACAUGAGGAUCACCCAUGUGGUAUCAUGG [salish99_ex6_r3_002] (puzzle: Exclusion 6) | – | – | 87.5 nM | apparent KD of MS2 coat protein [2]: 83.5 nM; apparent KD of MS2 coat protein [3]: 95 nM |
| AAAGGUGAGUAGGAUAUCCGCGCACGAAUAAAAGGAGAAGGACUUACAUGAGGAUCACCCAUGUAAGGUGGUAA [Ationbi] (puzzle: Exclusion 6) | – | – | 11.7 nM | apparent KD of MS2 coat protein [2]: 19.4 nM; apparent KD of MS2 coat protein [3]: 15.1 nM |
| CUUUUGUGAGGAUAUCAGUAGUAAAUAAAUAAAAUUACUACUGAGAAGGCACAUGAGGAUCACCCAUGUUCCUU [salish99_ex3_r3_089] (puzzle: Exclusion 4) | – | – | 15.3 nM | – |
| AGUACUUACACGAAAGUGUAAGUACAAUAAGCUUGUGGAACAUGAGGAUCACCCAUGUCCUCAUAAGCUCGUCUUAU [Mat - Sensor v3 - Turn-off var 2 - D28] (puzzle: Sensor v3, turn-off variant 2) | – | – | 75.2 nM | apparent KD of MS2 coat protein [2]: 14.5 nM; apparent KD of MS2 coat protein [3]: 14.3 nM |
| CCUAUGUGAGGAUAUCACUGGUCUUCUCACUGGAUGACCAGUGAGAAGGCACAUGAGGAUCACCCAUGUCGGUG [Ex4 - 3 - 50] (puzzle: Exclusion 4) | – | – | 312 nM | – |
